Source: article PMC5227094

Molecular target: PSD95 (mouse (endogenous in forebrain)) (UniProt Q62108)
Experiment: native gel or EMSA; BNP GluN1 immunoblot of forebrain deoxycholate extracts of WT and Glun2b^2A(CTR)/2A(CTR) mice; 1.5-NR band quantified relative to WT

UniProt Q62108, sequence (Q62108 whole entry): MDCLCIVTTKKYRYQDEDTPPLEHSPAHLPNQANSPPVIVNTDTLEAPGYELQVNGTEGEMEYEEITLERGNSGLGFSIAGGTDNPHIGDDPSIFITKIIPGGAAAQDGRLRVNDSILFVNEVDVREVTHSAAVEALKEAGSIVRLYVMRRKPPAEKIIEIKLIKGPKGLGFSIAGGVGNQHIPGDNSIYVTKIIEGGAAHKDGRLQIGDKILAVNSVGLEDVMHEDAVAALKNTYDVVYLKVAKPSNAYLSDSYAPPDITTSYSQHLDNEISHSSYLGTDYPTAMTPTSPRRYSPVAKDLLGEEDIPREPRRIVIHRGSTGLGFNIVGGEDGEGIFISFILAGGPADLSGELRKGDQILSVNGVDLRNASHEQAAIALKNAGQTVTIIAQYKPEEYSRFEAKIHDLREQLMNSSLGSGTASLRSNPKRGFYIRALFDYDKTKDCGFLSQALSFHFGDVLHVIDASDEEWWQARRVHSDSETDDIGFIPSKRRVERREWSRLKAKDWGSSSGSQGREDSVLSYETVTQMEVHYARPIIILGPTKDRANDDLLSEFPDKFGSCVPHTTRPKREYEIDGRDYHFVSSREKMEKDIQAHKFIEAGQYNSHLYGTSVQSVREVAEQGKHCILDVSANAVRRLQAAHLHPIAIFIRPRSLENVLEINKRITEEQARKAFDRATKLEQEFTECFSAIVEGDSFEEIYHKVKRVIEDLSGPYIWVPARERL

1.5-NR, % of WT: 6 % of WT
Substance: GluN2B with its C-terminal domain replaced by that of GluN2A (Glun2b^2A(CTR)/2A(CTR) knock-in)
